IC50 data for one molecule are collected here from publication PMC9645375 (Chemical Science, 2022).

This assay has as its target HDM2 (human double minute 2) protein (human, UniProt Q00987 1-491). Description: fluorescence polarisation. The settings on record: both partners purified. On the technique in general: Fluorescence polarisation rises when a labelled molecule tumbles more slowly, as on binding a larger partner.

Sequence of HDM2 (human double minute 2) protein (Q00987 whole entry): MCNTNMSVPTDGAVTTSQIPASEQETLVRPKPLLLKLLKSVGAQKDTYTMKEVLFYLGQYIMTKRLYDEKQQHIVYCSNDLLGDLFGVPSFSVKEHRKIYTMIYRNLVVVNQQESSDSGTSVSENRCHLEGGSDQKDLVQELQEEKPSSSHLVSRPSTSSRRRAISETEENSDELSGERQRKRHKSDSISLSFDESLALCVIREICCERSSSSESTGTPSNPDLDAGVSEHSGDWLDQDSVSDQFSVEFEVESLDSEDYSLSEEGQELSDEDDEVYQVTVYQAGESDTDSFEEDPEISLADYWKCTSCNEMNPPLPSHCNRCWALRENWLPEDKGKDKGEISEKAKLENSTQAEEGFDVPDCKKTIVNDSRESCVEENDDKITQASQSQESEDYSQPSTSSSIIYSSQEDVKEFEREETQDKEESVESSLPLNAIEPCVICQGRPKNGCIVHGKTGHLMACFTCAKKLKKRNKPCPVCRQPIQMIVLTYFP

Molecule PCFYDYWQCL (not fully specified; stapled (the two Cys residues at i and i+7 cross-linked), source: synthetic peptide) [stapled HDM2-opt peptide] displayed a 50% inhibitory concentration (IC50) of 6.9 ± 1.9 µM.

By IC50 is commonly meant the concentration at which inhibition is half-maximal. Read a high IC50 as weaker potency.
